Laboratory results taken from patent US20250145684A1 (IMMATICS BIOTECHNOLOGIES, published 2025).

target: T1, HLA-B*44:05 (human); experiment: UV peptide exchange ELISA
T1 construct: MHC monomer first loaded with a UV-sensitive peptide that is cleaved by UV light and exchanged for the test peptide
Outline: (§1)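 Peptide–MHC complexes formed by UV-mediated exchange of a photocleavable ligand; exchange yield assessed by ELISA on streptavidin-coated plates, samples diluted 100-fold. Bound complexes detected with HRP anti-β2m and TMB at 450 nm against HLA-A*02:01 monomer standards (15–500 ng/ml).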

Binder | binding result
EEFLTPKKL [EEFLTPKKL (SEQ ID NO: 290)] | binds

target: T2, HLA-A*02:01 (human); experiment: UV peptide exchange ELISA
T2 construct: MHC monomer first loaded with a UV-sensitive peptide that is cleaved by UV light and exchanged for the test peptide
Outline: as §1

Binder | binding result
YVYANHFTEA (also called COL6A3-039) [YVYANHFTEA (SEQ ID NO: 291)] | binds

target: T3, HLA-B*08:01 (human); experiment: UV peptide exchange ELISA
T3 construct: MHC monomer first loaded with a UV-sensitive peptide that is cleaved by UV light and exchanged for the test peptide
Outline: as §1

Binder | peptide exchange yield
RLKLRYEGL [RLKLRYEGL (SEQ ID NO: 74)] | 50 to 75%
FDFRGKTKVF [FDFRGKTKVF (SEQ ID NO: 59)] | 20 to 50%
ILCGSRKMPL [ILCGSRKMPL (SEQ ID NO: 56)] | 20 to 50%
RPKGTPPL [RPKGTPPL (SEQ ID NO: 70)] | 20 to 50%
DLKKTRVL [DLKKTRVL (SEQ ID NO: 66)] | 20 to 50%
DQLLRHVM [DQLLRHVM (SEQ ID NO: 94)] | 50 to 75%
ELARQRLL [ELARQRLL (SEQ ID NO: 69)] | 20 to 50%
GLARIYSF [GLARIYSF (SEQ ID NO: 79)] | 20 to 50%
MLHIKKAEV [MLHIKKAEV (SEQ ID NO: 60)] | 50 to 75%
RPIHHPLVL [RPIHHPLVL (SEQ ID NO: 86)] | 20 to 50%
TIGLGLHSL [TIGLGLHSL (SEQ ID NO: 90)] | 20 to 50%
RPAGVFEL [RPAGVFEL (SEQ ID NO: 96)] | 20 to 50%
HSRVKLAQL [HSRVKLAQL (SEQ ID NO: 47)] | 20 to 50%
ELALRQTV [ELALRQTV (SEQ ID NO: 48)] | 20 to 50%
DLRKLKRQL [DLRKLKRQL (SEQ ID NO: 53)] | 20 to 50%
HPRLKVNLL [HPRLKVNLL (SEQ ID NO: 76)] | 50 to 75%
FVRPKLVTI [FVRPKLVTI (SEQ ID NO: 8)] | 50 to 75%
QKPRKKKL [QKPRKKKL (SEQ ID NO: 85)] | 20 to 50%
EVYLRMYQL [EVYLRMYQL (SEQ ID NO: 80)] | 50 to 75%
LPLAHHIQL [LPLAHHIQL (SEQ ID NO: 72)] | 50 to 75%

Binder | peptide exchange yield
YITRQFVQF [YITRQFVQF (SEQ ID NO: 84)] | 20 to 50%
NRQKRFVL [NRQKRFVL (SEQ ID NO: 6)] | 20 to 50%
FVLLRSVDL [FVLLRSVDL (SEQ ID NO: 83)] | 50 to 75%
HIRIKHTF [HIRIKHTF (SEQ ID NO: 71)] | 50 to 75%
DLSRRDVSL [DLSRRDVSL (SEQ ID NO: 54)] | 20 to 50%
ELILKHSL [ELILKHSL (SEQ ID NO: 52)] | 50 to 75%
MLLCLSLEL [MLLCLSLEL (SEQ ID NO: 88)] | 20 to 50%
LLKGKPRAL [LLKGKPRAL (SEQ ID NO: 9)] | 20 to 50%
SRNPRGFFL [SRNPRGFFL (SEQ ID NO: 95)] | 20 to 50%
MFPARGVPL [MFPARGVPL (SEQ ID NO: 73)] | 20 to 50%
MPLKHYLL [MPLKHYLL (SEQ ID NO: 57)] | 20 to 50%
LMKEKIQEM [LMKEKIQEM (SEQ ID NO: 93)] | 50 to 75%
STMPKILAL [STMPKILAL (SEQ ID NO: 5)] | 50 to 75%
AARLRPAL [AARLRPAL (SEQ ID NO: 7)] | 20 to 50%
LPKLPVPPL [LPKLPVPPL (SEQ ID NO: 77)] | 50 to 75%
ERRVKVSSL [ERRVKVSSL (SEQ ID NO: 51)] | 50 to 75%
TLRLLVAAL [TLRLLVAAL (SEQ ID NO: 50)] | 50 to 75%
SIRKRPML [SIRKRPML (SEQ ID NO: 82)] | 20 to 50%
FLRVFTDSL [FLRVFTDSL (SEQ ID NO: 49)] | 50 to 75%
LPKKMKLL [LPKKMKLL (SEQ ID NO: 58)] | 20 to 50%

Binder | peptide exchange yield
TLKAMVQAW [TLKAMVQAW (SEQ ID NO: 92)] | 50 to 75%
FMLAKEASL [FMLAKEASL (SEQ ID NO: 62)] | 20 to 50%
QILQHHVL [QILQHHVL (SEQ ID NO: 87)] | 50 to 75%
SIKKELVVL [SIKKELVVL (SEQ ID NO: 61)] | 20 to 50%
VLLMGPLHL [VLLMGPLHL (SEQ ID NO: 100)] | 20 to 50%
DMNTKRAIHTL [DMNTKRAIHTL (SEQ ID NO: 67)] | 20 to 50%
YVKRKTNVL [YVKRKTNVL (SEQ ID NO: 63)] | 20 to 50%
DLKIPRYPV [DLKIPRYPV (SEQ ID NO: 68)] | 50 to 75%
DGHMKVFSL [DGHMKVFSL (SEQ ID NO: 78)] | 20 to 50%
NLLMRNVL [NLLMRNVL (SEQ ID NO: 65)] | 20 to 50%
VLLSRRTAL [VLLSRRTAL (SEQ ID NO: 55)] | 20 to 50%
MYRKEQYL [MYRKEQYL (SEQ ID NO: 81)] | 20 to 50%
EPVNTNVVL [EPVNTNVVL (SEQ ID NO: 98)] | 20 to 50%
YARLKNVLL [YARLKNVLL (SEQ ID NO: 75)] | 50 to 75%
NVKIRFLE [NVKIRFLE (SEQ ID NO: 99)] | 20 to 50%
FILGREAGAL [FILGREAGAL (SEQ ID NO: 64)] | 20 to 50%
VPYTKVQL [VPYTKVQL (SEQ ID NO: 89)] | 50 to 75%
MPMQDIKMIL [MPMQDIKMIL (SEQ ID NO: 91)] | 20 to 50%
